Data: the supplement of paper PMC9732359
± gives the uncertainty stated by the source.

Assay: protein stability index of a GFP-peptide fusion (yeast GPS) (PSI 1-4); higher = more stable; sorted into four equal gates, so the index is relative within each strain
How it was run: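 Plasmids isolated from each sorting gate were PCR-amplified and Illumina-sequenced, and barcodes assigned the reads to strains. The gates, four of equal size, were set by GFP/Cherry fluorescence ratio on mid-log cultures in leucine-free medium. These cultures were yeast carrying a pooled library of tiled 17-residue yeast protein peptides fused downstream of GFP on a plasmid that also expresses Cherry. The protein stability index is the sum of every gate's read frequency times its gate number.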

AAAFSQQQNASSKLYQM [GAL11]
protein stability index (doa10∆): 2.71 ± 0.097
protein stability index (pdr5∆): 2.86 ± 0.071
protein stability index (san1∆): 2.82 ± 0.045
protein stability index (ubr1∆): 3.25 ± 0.072

AAAGGDAAAEEEKEEEA [RPP1B]
protein stability index (doa10∆): 3.32 ± 0.21
protein stability index (pdr5∆): 3.46 ± 0.16
protein stability index (san1∆): 3.16 ± 0.2
protein stability index (ubr1∆): 3.08 ± 0.23

AAEFRYKYGYDMPCDVL [SCL1]
protein stability index (doa10∆): 2.64 ± 0.078
protein stability index (pdr5∆): 2.79 ± 0.057
protein stability index (san1∆): 2.69 ± 0.054
protein stability index (ubr1∆): 2.33 ± 0.059

AAEPMDSKMIQDLSRNT [SNU114]
protein stability index (doa10∆): 2.93 ± 0.18
protein stability index (san1∆): 3.18 ± 0.19

AAGVERLIFYPDEYEQL [PRE3]
protein stability index (doa10∆): 2.96 ± 0.14
protein stability index (pdr5∆): 2.86 ± 0.13
protein stability index (san1∆): 3.1 ± 0.093
protein stability index (ubr1∆): 2.69 ± 0.16

AAIHAKRVTIQKKDIKL [HHT1]
protein stability index (doa10∆): 2.92 ± 0.086
protein stability index (pdr5∆): 3.04 ± 0.12
protein stability index (san1∆): 3.14 ± 0.091
protein stability index (ubr1∆): 3.1 ± 0.075

AAIKDLDDFGEEELFEV [RRP43]
protein stability index (doa10∆): 2.46 ± 0.11
protein stability index (pdr5∆): 2.49 ± 0.14
protein stability index (san1∆): 2.17 ± 0.13

AALDITNVQRIAAYIRR [SMC1]
protein stability index (doa10∆): 3.08 ± 0.16
protein stability index (pdr5∆): 3.07 ± 0.17
protein stability index (san1∆): 3.24 ± 0.13
protein stability index (ubr1∆): 3.09 ± 0.091

AALDLSHTQNIGHLIKT [SMC2]
protein stability index (doa10∆): 2.88 ± 0.083
protein stability index (pdr5∆): 2.47 ± 0.063
protein stability index (san1∆): 2.27 ± 0.087
protein stability index (ubr1∆): 2.72 ± 0.046

AALFRLHKFLTKWGLIN [SWI3]
protein stability index (doa10∆): 2.83 ± 0.22
protein stability index (san1∆): 2.94 ± 0.19
protein stability index (ubr1∆): 2.66 ± 0.23

AALKKTRKAARPQKLRA [RPL6A]
protein stability index (doa10∆): 2.96 ± 0.071
protein stability index (pdr5∆): 3.09 ± 0.05
protein stability index (san1∆): 2.97 ± 0.043
protein stability index (ubr1∆): 3.16 ± 0.055

AAQIFGSYNAFEPASRL [COR1]
protein stability index (doa10∆): 2.33 ± 0.07
protein stability index (pdr5∆): 1.55 ± 0.064
protein stability index (san1∆): 1.41 ± 0.16
protein stability index (ubr1∆): 1.51 ± 0.082

AAQTLLQMDYKDDMKVD [PRE9]
protein stability index (doa10∆): 3.3 ± 0.1
protein stability index (pdr5∆): 3.3 ± 0.068
protein stability index (san1∆): 3.25 ± 0.063
protein stability index (ubr1∆): 3.26 ± 0.084

AARKAANKEKRAIILER [RPL7A]
protein stability index (doa10∆): 1.19 ± 0.051
protein stability index (pdr5∆): 1.37 ± 0.058
protein stability index (san1∆): 1.14 ± 0.078
protein stability index (ubr1∆): 1.27 ± 0.14

AASALDEKEKQLAVANE [SIR4]
protein stability index (doa10∆): 2.92 ± 0.081
protein stability index (pdr5∆): 3.28 ± 0.072
protein stability index (san1∆): 3.3 ± 0.055
protein stability index (ubr1∆): 3.36 ± 0.073

AASKVKLEEESKRGNDK [RPC53]
protein stability index (doa10∆): 3.27 ± 0.089
protein stability index (pdr5∆): 3.41 ± 0.098
protein stability index (san1∆): 3.38 ± 0.071
protein stability index (ubr1∆): 3.25 ± 0.064

AATVRSTIRRLREMVEA [RPL43A]
protein stability index (doa10∆): 3.02 ± 0.084
protein stability index (pdr5∆): 2.8 ± 0.056
protein stability index (san1∆): 2.74 ± 0.086
protein stability index (ubr1∆): 3.09 ± 0.064

AAVIALGFVLLRDYTTV [RPN2]
protein stability index (doa10∆): 1.59 ± 0.066
protein stability index (pdr5∆): 1.21 ± 0.081
protein stability index (san1∆): 1.22 ± 0.082
protein stability index (ubr1∆): 1.27 ± 0.048

ADAGIELVDMAGAGEAN [MTR3]
protein stability index (doa10∆): 2.76 ± 0.11
protein stability index (pdr5∆): 2.69 ± 0.084
protein stability index (san1∆): 2.32 ± 0.1
protein stability index (ubr1∆): 2.9 ± 0.086

ADAVTKDLKLRREDEII [REC8]
protein stability index (doa10∆): 3.08 ± 0.11
protein stability index (pdr5∆): 3.31 ± 0.1
protein stability index (san1∆): 3.3 ± 0.065
protein stability index (ubr1∆): 3.03 ± 0.062

ADEPVKASLLLHVLVAH [FAS2]
protein stability index (doa10∆): 1.85 ± 0.043
protein stability index (pdr5∆): 1.59 ± 0.035
protein stability index (san1∆): 1.3 ± 0.059
protein stability index (ubr1∆): 1.43 ± 0.028

ADINSNRLSNPQKNLLL [YOR098C/NUP1]
protein stability index (doa10∆): 3.11 ± 0.069
protein stability index (pdr5∆): 3 ± 0.07
protein stability index (san1∆): 2.81 ± 0.065
protein stability index (ubr1∆): 2.88 ± 0.082

ADVHFLDCDGGFIDASC [RRP45]
protein stability index (doa10∆): 3.12 ± 0.09
protein stability index (pdr5∆): 2.9 ± 0.098
protein stability index (san1∆): 3.14 ± 0.055
protein stability index (ubr1∆): 2.9 ± 0.054

ADVLSILAMTYSENGKH [RPN1]
protein stability index (doa10∆): 1.64 ± 0.066
protein stability index (pdr5∆): 1.9 ± 0.1
protein stability index (san1∆): 1.45 ± 0.11
protein stability index (ubr1∆): 1.36 ± 0.052

ADVLVDRVVSSDSLDIA [SRP72]
protein stability index (doa10∆): 1.95 ± 0.056
protein stability index (pdr5∆): 1.58 ± 0.072
protein stability index (san1∆): 1.42 ± 0.12
protein stability index (ubr1∆): 1.81 ± 0.081

AEDGSRSTKDMIDAVFE [SNF6]
protein stability index (doa10∆): 3.18 ± 0.06
protein stability index (pdr5∆): 3.38 ± 0.048
protein stability index (san1∆): 3.31 ± 0.042
protein stability index (ubr1∆): 3.14 ± 0.046
